# Measurements as given in patent US20250115669A1, “FGFR1/KLB Targeting Agonistic Antigen-Binding Proteins and Conjugates Thereof with GLP-1R Agonistic Peptides” (SANOFI, priority 2020, published 2025).
# Numbering of substitutions follows the chain as printed. In names and notes the source's numbering stands.
# B1: Ab0370: IgG4 PE; 16H7 VL (Y48del, W90H); 16H7 VH (M34V, H52W, I83T, D109E) (antibody)
# VH: QVTLKESGPVLVKPTETLTLTCTVSGFSLNNARVGVSWIRQPPGKALEWLAWIFSNDEKSYSTSLKSRLTISKDTSKSQVVLTMTNMDPVDTATYYCARSVVTGGYYYEGMDVWGQGTTVTVSS
# light: SYVLTQPPSVSVAPGQTARITCGGNNIGSESVHWYQQKPGQAPVLVVDDSDRPSGIPERFSGSNSGNTATLTISRVEAGDEADYYCQVHDGNSDHVVFGGGTKLTVLGQPKANPTVTLFPPSSEELQANKATLVCLISDFYPGAVTVAWKADGSPVKAGVETTKPSKQSNNKYAASSYLSLTPEQWKSHRSYSCQVTHEGSTVEKTVAPTECS
# B2: Ab0298: IgG4 PE; 16H7 VL (N25S, D49Y, D50E); 16H7 VH (M34V, I83T, D109E) (antibody)
# VH: B1 VH with W52H
# light: SYVLTQPPSVSVAPGQTARITCGGSNIGSESVHWYQQKPGQAPVLVVYYESDRPSGIPERFSGSNSGNTATLTISRVEAGDEADYYCQVWDGNSDHVVFGGGTKLTVLGQPKANPTVTLFPPSSEELQANKATLVCLISDFYPGAVTVAWKADGSPVKAGVETTKPSKQSNNKYAASSYLSLTPEQWKSHRSYSCQVTHEGSTVEKTVAPTECS
# B3: Ab0360: IgG4 PE; 16H7 VL (N25S, D49E, D50H, D91E, N93S); 16H7 VH (M34V, I83T, D109E) (antibody)
# VH: B1 VH with W52H
# light: B2 light with Y49E, E50H, D91E, N93S
# B4: Ab0375: IgG4 PE; 16H7 VL (Y48del, D95E, W90F, S1C, S94C); 16H7 VH (M34V, F54W, I83T, D109E) (antibody)
# VH: B1 VH with W52H, F54W
# light: B1 light with S1C, H89F, S93C, D94E
# B5: Ab0310: IgG4 PE; 16H7 VL (N25S, D50E, N93E); 16H7 VH (M34V, I83T, D109E) (antibody)
# VH: B1 VH with W52H
# light: B2 light with Y49D, N93E
# B6: Ab0359: IgG4 PE; 16H7 VL (N25S, D49E, D50H, D91A, N93S); 16H7 VH (M34V, I83T, D109E) (antibody)
# VH: B1 VH with W52H
# light: B2 light with Y49E, E50H, D91A, N93S
# B7: Ab0303: IgG4 PE; 16H7 VL (N25S, D50E, D91T); 16H7 VH (M34V, I83T, D109E) (antibody)
# VH: B1 VH with W52H
# light: B2 light with Y49D, D91T
# B8: Ab0316: IgG4 PE; 16H7 VL (N25S, D49Y, D91T, N93E); 16H7 VH (M34V, I83T, D109E) (antibody)
# VH: B1 VH with W52H
# light: B2 light with E50D, D91T, N93E
# B9: Ab0364: IgG4 PE; 16H7 VL (N25A, D49E, D50E, D91E, N93S); 16H7 VH (M34V, I83T, D109E) (antibody)
# VH: B1 VH with W52H
# light: B2 light with S25A, Y49E, D91E, N93S
# B10: Ab0305: IgG4 PE; 16H7 VL (N25S, D49Y, D50E, D91T); 16H7 VH (M34V, I83T, D109E) (antibody)
# VH: B1 VH with W52H
# light: B2 light with D91T
# B11: Ab0304: IgG4 PE; 16H7 VL (D49Y, D50E, D91T); 16H7 VH (M34V, I83T, D109E) (antibody)
# VH: B1 VH with W52H
# light: B2 light with S25N, D91T
# B12: Ab0308: IgG4 PE; 16H7 VL (N25S, D49Y, N93E); 16H7 VH (M34V, I83T, D109E) (antibody)
# VH: B1 VH with W52H
# light: B2 light with E50D, N93E
# B13: Ab0317: IgG4 PE; 16H7 VL (D50E, D91T, N93E); 16H7 VH (M34V, I83T, D109E) (antibody)
# VH: B1 VH with W52H
# light: B2 light with S25N, Y49D, D91T, N93E
# B14: Ab0318: IgG4 PE; 16H7 VL (N25S, D50E, D91T, N93E); 16H7 VH (M34V, I83T, D109E) (antibody)
# VH: B1 VH with W52H
# light: B2 light with Y49D, D91T, N93E
# B15: Ab0301: IgG4 PE; 16H7 VL (N25S, D49Y, D91T); 16H7 VH (M34V, I83T, D109E) (antibody)
# VH: B1 VH with W52H
# light: B2 light with E50D, D91T
# B16: Ab0362: IgG4 PE; 16H7 VL (N25S, D49T, D50E, D91A, N93S); 16H7 VH (M34V, I83T, D109E) (antibody)
# VH: B1 VH with W52H
# light: B2 light with Y49T, D91A, N93S
# B17: Ab0311: IgG4 PE; 16H7 VL (D49Y, D50E, N93E); 16H7 VH (M34V, I83T, D109E) (antibody)
# VH: B1 VH with W52H
# light: B2 light with S25N, N93E
# B18: Ab0315: IgG4 PE; 16H7 VL (D49Y, D91T, N93E); 16H7 VH (M34V, I83T, D109E) (antibody)
# VH: B1 VH with W52H
# light: B2 light with S25N, E50D, D91T, N93E
# B19: Ab0361: IgG4 PE; 16H7 VL (N25S, D49E, D50S, D91E, N93S); 16H7 VH (M34V, I83T, D109E) (antibody)
# VH: B1 VH with W52H
# light: B2 light with Y49E, E50S, D91E, N93S
# B20: Ab0365: IgG4 PE; 16H7 VL (N25A, D49T, D50E, D91A, N93S); 16H7 VH (M34V, I83T, D109E) (antibody)
# VH: B1 VH with W52H
# light: B2 light with S25A, Y49T, D91A, N93S
# B21: Ab0363: IgG4 PE; 16H7 VL (N25A, D49S, D50A, D91A, N93A); 16H7 VH (M34V, I83T, D109E) (antibody)
# VH: B1 VH with W52H
# light: B2 light with S25A, Y49S, E50A, D91A, N93A
# Target: T1, FGFR1c and co-receptor beta-Klotho (KLB) (Homo sapiens, UniProt P11362+Q86Z14)
# T1 construct: host or cells: iLite FGF21 Assay Ready Cells (HEK293)
# T1 sequence (P11362 22-820 isoform P11362-2 limits assumed, one chain of several): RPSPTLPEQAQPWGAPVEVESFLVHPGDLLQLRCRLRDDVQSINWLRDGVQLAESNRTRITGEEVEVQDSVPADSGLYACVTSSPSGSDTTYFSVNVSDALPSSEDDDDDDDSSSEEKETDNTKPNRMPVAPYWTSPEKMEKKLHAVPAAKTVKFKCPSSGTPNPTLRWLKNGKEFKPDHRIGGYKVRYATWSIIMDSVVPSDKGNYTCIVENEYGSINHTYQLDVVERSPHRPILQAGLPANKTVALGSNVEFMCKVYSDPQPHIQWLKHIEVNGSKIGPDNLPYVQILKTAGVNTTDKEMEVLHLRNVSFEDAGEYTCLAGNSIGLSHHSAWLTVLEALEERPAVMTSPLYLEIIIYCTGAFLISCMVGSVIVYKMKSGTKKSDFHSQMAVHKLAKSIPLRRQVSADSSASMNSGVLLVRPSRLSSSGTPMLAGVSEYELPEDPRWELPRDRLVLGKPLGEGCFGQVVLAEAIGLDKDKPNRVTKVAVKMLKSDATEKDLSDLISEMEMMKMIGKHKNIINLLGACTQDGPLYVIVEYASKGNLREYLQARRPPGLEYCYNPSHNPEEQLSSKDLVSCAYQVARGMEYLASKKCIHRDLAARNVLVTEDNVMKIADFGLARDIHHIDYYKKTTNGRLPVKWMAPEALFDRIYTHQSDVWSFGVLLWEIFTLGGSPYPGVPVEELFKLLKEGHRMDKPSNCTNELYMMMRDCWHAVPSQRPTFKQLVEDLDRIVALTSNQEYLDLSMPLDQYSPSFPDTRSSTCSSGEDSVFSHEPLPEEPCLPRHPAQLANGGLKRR
# Assay: Luciferase reporter gene assay (iLite FGF21 Assay Ready Cells), FGF21-like signaling
# Format: cell-based
# Settings: Luciferase gene reporter assay, mean, n=3-7
row,Molecule,HEK293 hFGFR1c + KLB (iLite) Emax
1,B1,490.05%

# Target: T2, human beta-Klotho (Homo sapiens, UniProt Q86Z14)
# T2 sequence (Q86Z14 1-1044): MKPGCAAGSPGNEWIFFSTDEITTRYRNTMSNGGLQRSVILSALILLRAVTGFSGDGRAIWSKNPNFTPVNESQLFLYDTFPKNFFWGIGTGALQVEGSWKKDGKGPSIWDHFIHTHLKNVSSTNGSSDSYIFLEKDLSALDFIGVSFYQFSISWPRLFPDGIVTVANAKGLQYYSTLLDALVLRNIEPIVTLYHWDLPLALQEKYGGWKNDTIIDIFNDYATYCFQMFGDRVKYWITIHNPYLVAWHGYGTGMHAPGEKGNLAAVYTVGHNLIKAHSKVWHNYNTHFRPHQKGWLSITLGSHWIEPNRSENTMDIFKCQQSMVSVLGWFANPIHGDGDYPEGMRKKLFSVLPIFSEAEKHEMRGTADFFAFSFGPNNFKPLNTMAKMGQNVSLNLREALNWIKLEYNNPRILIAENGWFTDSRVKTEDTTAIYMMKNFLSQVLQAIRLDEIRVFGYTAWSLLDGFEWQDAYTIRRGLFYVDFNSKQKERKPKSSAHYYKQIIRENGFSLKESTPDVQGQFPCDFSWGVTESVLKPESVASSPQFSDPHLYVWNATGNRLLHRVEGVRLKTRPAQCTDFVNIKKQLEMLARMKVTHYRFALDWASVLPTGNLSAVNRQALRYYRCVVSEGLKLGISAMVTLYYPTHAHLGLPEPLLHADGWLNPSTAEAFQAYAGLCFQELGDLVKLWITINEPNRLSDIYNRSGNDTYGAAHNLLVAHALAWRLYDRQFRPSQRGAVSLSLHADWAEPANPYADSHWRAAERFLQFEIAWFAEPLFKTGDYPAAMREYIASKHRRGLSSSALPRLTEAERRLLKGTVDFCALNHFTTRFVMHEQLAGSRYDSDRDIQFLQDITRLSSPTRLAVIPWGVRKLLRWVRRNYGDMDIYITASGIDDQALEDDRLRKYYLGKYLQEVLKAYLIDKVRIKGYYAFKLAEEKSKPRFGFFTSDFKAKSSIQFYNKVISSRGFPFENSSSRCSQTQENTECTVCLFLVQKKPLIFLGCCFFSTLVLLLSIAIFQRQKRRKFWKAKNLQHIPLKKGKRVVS
# Assay: SPR off-rate screening of antibody mutants (human beta-Klotho captured by anti-His antibody)
# Format: binding
# Settings: mean, n=3
# Method in brief: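 Single-concentration SPR screen: mutant antibodies at 50 nmol/L were passed over captured beta-Klotho, and kd was derived from a single exponential fit.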
row,Molecule,koff human KLB
1,B2,0.0016 s⁻¹
2,B3,0.00192 s⁻¹
3,B4,no binding
4,B5,0.00116 s⁻¹
5,B6,invalid fit
6,B7,invalid fit
7,B8,invalid fit
8,B9,0.00169 s⁻¹
9,B10,invalid fit
10,B11,invalid fit
11,B12,0.0013 s⁻¹
12,B13,invalid fit
13,B14,invalid fit
14,B15,invalid fit
15,B16,invalid fit
16,B17,0.0013 s⁻¹
17,B18,invalid fit
18,B19,0.00163 s⁻¹
19,B20,invalid fit
20,B21,invalid fit
